Laboratory results published in patent publication US9371374 (AbbVie / Abbott, dated 2016).
Where a chain is given by its changes, count along the chain named.

T1: HCV Core1-169 (HCV-1, UniProt P26664 1-169)
T1 construct: also called Solid Phase HCV Core
T1 sequence: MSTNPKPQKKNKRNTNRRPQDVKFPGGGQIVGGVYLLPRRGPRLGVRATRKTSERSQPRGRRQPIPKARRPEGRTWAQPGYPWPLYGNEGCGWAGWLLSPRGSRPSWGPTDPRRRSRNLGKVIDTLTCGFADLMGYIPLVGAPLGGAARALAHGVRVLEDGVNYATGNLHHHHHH

B1: HCV 208A-110 (antibody, V domains shown)
VH: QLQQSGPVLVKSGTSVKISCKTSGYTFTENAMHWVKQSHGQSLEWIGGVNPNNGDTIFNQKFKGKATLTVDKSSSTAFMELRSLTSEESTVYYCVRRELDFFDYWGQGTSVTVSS
VL: DIVLTQSPASLAVSLGQRATISCRASQSVSTSRYSYMHWYQQKPGQPPKLLIKYASNLESGVPARFSGSGSGTDFTLNIHPVAEEDTAAYYCQHSWEFPFTFGSGTKLEIKR
B2: HCV 208A-741 (antibody, V domains shown)
VH: QLQQSGPVLVKPGASVMISCKTSGYTFTENAMHWVKQSHGKSLEWIGGVNPNNGDTIFNQKFKGKATLTVDKSSSTAFMELRSLTSEESTVYYCVRRELDFFDYWGQGTSVTVSS
VL: B1 VL with A19T, R24G, Y34F
B3: HCV 208A-293 (antibody, V domains shown)
VH: EVQLQQSGPELVKPGASVKISCKASGFTFTEYAMHWMKQSHGKSLEWIGGINPTNGDAIYNQKFKDKAKLTVDRSSSTAYMELRSLTSDDSALFYCARRELDYFPSWGQGTTLTVSS
VL: B1 VL with A12I, Y34F, M37V, Y40I, A64V, T76I, A83E, A89T, Y91F
B4: HCV 208B-1096 (antibody, V domains shown)
VH: QVQLQQSGAGLAKPGASVKMSCKASGYTFTANKMHWAKQRPGQGLEWIGYIDPSSGYTEYNHKIQYKATLTADTSSSTAYMQLSTLTFEDSAVYYCTNFAYWGQGTLVTVSA
VL: DIVMTQTPLTLSVTIGQPASISCKSSQSLLFTNGKTYLNWFLQRPGQSPKRLIYLLSKLDSGVPDRFSGSGSGTDFTLKISRVEAEDLGVYYCLQSTYFPLTFGAGTKLELKR
B5: HCV 208A-692 (antibody, V domains shown)
VH: QGQMQQSGAELAKPGASVKLSCKTSGFTFSSSYISWLKQKPGQSLEWIAWIFAGTGNTNYNQKFTDKAQLTVDTSSSTAYMQLSSLTTEDSAIYYCAISGTGFTYWGQGTLVTVSA
VL: EVLMTQSPLSLPVSLGDQASISCRSSQSLEHSNGNTYLEWFLQRPGQPPKLLIYKVSSRFSGVPDRFSGSGSGTDFTLKISRVEAEDLGVYYCFQGSHVPFTFGSGTKLAIKR
B6: HCV 208A-557 (antibody, V domains shown)
VH: B5 VH with A12V, F52Y
VL: B1 VL with V3A, K49E, A83G, A89T, E97D
B7: HCV 208A-207 (antibody, V domains shown)
VH: QGQLQQPGAEFVKPGASLKLSCRASGYTFTSYWIHWVKQRPGQGLEWIGEIDPSDSYINQNQKFRGKATLTVDKSSSTAYMELSGLTSEDSAVYYCARHYYGVLDSWGQGTTLTVSS
VL: DIVLTQSPATLSVTPGDRVSLSCRASQRIYNYLHWYQQKSHESPRLLTKYASQSISGIPSRFSGSGSGTDFILTINSVETEDFGMYFCQQSNSWPLTFGAGTKLELRR
B8: HCV 208B-395 (antibody, V domains shown)
VH: B4 VH with A37T, E59Q, Y66D, T85S
VL: B7 VL with T48I
B9: HCV 208B-612 (antibody, V domains shown)
VH: EVQLQQSGPELVKPGASVKMSCKASGYRFTSYVMHWVRQKPGQGLEWIGYIDPHNDDTKYSEKFRGKATLTSDKSSTTAYMELSSLTSEDSAVYYCVRYSYDRDYSPMDYWGQGTSVTVSS
VL: QIVLTQSPTLMSASPGEKVTMTCSASSTVTYIYWYQQKPGSSPRLWMYDTFNLVSGVPARFSGSRSGTSYFLTISSMEGEDAATYYCQQYSDSPYTFGGGTKLEIKR
B10: HCV 208B-189 (antibody, V domains shown)
VH: QVHLQQSGAELAKPGASVQMSCKASGYTFTANKMHWARQRPRQGLEWIGYIDPASGYTEYNQKIKDRATLTADKSSSTAYMQLSSLTSEDSAVYYCTNFAYWGQGTLVTVST
VL: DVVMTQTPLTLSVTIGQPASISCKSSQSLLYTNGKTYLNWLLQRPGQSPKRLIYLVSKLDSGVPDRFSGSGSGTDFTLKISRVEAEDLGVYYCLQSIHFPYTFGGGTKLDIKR
B11: HCV 208B-471 (antibody, V domains shown)
VH: QGQLQQSGPVLVKPGASEILYCKTSGFTFSSTYISWLKQKPGQSLEWIAWIYAGTGATNYNQKFTGKAQLTVDASSNTAYMHFSGLTPEDSAIYYCAISGAGVYWGQGTLVTVSA
VL: DVVMTQTPLSLPVSLGDQASISCRSSQSLLHSNGNTYLEWYLQKPGQSPNLLIYNVSNRFSGVPDRFSGSGSGTDFALKISRVGAEDLGVYYCFQGSHVPLTFGAGTKLELKR
B12: HCV 208B-547 (antibody, V domains shown)
VH: B10 VH with H3Q, Q19K, A31S, R38K, R42G, A54S, R67K, T112A
VL: EVVLTQSPAITAASLGQKVTITCRASSSVSYMHWYRQKSGTSPQPWIYEISTLASGVPTRFRASGSGTSYSLTISSMEAEDAAIYYCQQWNYPLTFGAGTKLELKR
B13: HCV 208B-672 (antibody, V domains shown)
VH: EVKLVESGGSLVQPGGSLKLSCAASGFNFNTYAMSWVRQTPEKRLEWVAYISNGGGNTYYVDTVKGRFTISRDNAKNTLYLRMSSLKSEDTAMYYCARHGLYWGYSMDYWGQGTSVTVSS
VL: DIQMTQSPSSLSASLGERVSLTCRASQDIGGSINWLQQEPDGTIKRLIYATSSLDSGVPKRFSGSRSGSDYSLTISSLESEDFVDYYCLQYASSPPTFGGGTKLEIKR

target: T1, HCV Core1-169; assay: sandwich EIA, capture 208A-692

| Binder | OD492 [OD] |
| --- | --- |
| B1 | 0.14 |
| B2 | 0.32 |
| B3 | 0.34 |
| B4 | 0.15 |
| B5 | 0.35 |
| B6 | 0.13 |
| B7 | 0.42 |
| B8 | 0.15 |

target: T1, HCV Core1-169; assay: sandwich EIA, capture 208A-293

| Binder | OD492 [OD] |
| --- | --- |
| B1 | 0.2 |
| B2 | 0.42 |
| B3 | 0.49 |
| B4 | 0.24 |
| B5 | 0.51 |
| B6 | 0.41 |
| B7 | 0.42 |
| B8 | 0.26 |
| B9 | 0.28 |

target: T1, HCV Core1-169; assay: sandwich EIA, capture 208B-741

| Binder | OD492 [OD] |
| --- | --- |
| B1 | 0.2 |
| B2 | 0.36 |
| B3 | 0.5 |
| B4 | 0.23 |
| B5 | 0.44 |
| B6 | 0.38 |
| B7 | 0.3 |
| B8 | 0.21 |
| B9 | 0.23 |

target: T1, HCV Core1-169; assay: sandwich EIA, capture C11-7

| Binder | OD492 [OD] |
| --- | --- |
| B1 | 0.18 |
| B2 | 2.36 |
| B3 | 2.87 |
| B4 | 1.06 |
| B5 | 2.92 |
| B6 | 0.22 |
| B7 | 2.47 |
| B8 | 0.89 |
| B9 | 1.52 |

target: T1, HCV Core1-169; assay: sandwich EIA, capture 208B-1096

| Binder | OD492 [OD] |
| --- | --- |
| B1 | 0.21 |
| B2 | 0.52 |
| B3 | 0.41 |
| B4 | 0.26 |
| B5 | 0.38 |
| B6 | 0.35 |
| B7 | 0.33 |
| B8 | 0.23 |
| B9 | 0.7 |

target: T1, HCV Core1-169; assay: sandwich EIA, capture C11-9

| Binder | OD492 [OD] |
| --- | --- |
| B1 | 0.13 |
| B2 | 2.13 |
| B3 | 2.6 |
| B4 | 0.33 |
| B5 | 2.66 |
| B6 | 0.14 |
| B7 | 2.2 |
| B8 | 0.32 |
| B9 | 0.64 |

target: T1, HCV Core1-169; assay: sandwich EIA, NC capture mAb; also: test concentration or dose not given here

| Binder | OD492 [OD] |
| --- | --- |
| B1 | 0.15 |
| B2 | 0.29 |
| B3 | 0.37 |
| B4 | 0.17 |
| B5 | 0.4 |
| B6 | 0.18 |
| B7 | 0.37 |
| B8 | 0.2 |
| B9 | 0.21 |

target: HCV Core 134-171-TT peptide (ALRZ-9 peptide) (HCV-1); assay: SPR, captured mAb;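 also: Anti-HCV Core mAbs from hybridoma supernatants held on a rabbit anti-mouse IgG CM5 surface, peptide flowed over 3 min then 4 min dissociation, duplicate concentrations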

| Binder | Kd [nM] | koff [s⁻¹] | kon [M⁻¹ s⁻¹] |
| --- | --- | --- | --- |
| B1 | 0.33 | 0.00055 | 1.7e+06 |
| B2 | 0.41 | 0.00069 | 1.7e+06 |
| B3 | 0.11 | 0.00023 | 2.1e+06 |
| B4 | 0.46 | 0.0006 | 1.3e+06 |
| B6 | 0.091 | 0.00021 | 2.4e+06 |
| B10 | 0.17 | 0.00015 | 880000 |
| B7 | < 0.032 | < 1e-05 | 310000 |
| B8 | 0.36 | 0.00047 | 1.3e+06 |
| B9 | 0.35 | 6.5e-05 | 180000 |
| B11 | 0.25 | 5.5e-05 | 220000 |
| B12 | 3.2 | 0.0049 | 1.6e+06 |
| B13 | 0.16 | 0.00034 | 2.2e+06 |

target: T1, HCV Core1-169; assay: sandwich EIA, capture 208A-557

| Binder | OD492 [OD] |
| --- | --- |
| B1 | 0.17 |
| B2 | 0.4 |
| B3 | 0.52 |
| B4 | 0.17 |
| B5 | 0.53 |
| B6 | 0.32 |
| B7 | 0.82 |
| B8 | 0.21 |
| B9 | 0.23 |

target: T1, HCV Core1-169; assay: sandwich EIA, capture 208B-612-226

| Binder | OD492 [OD] |
| --- | --- |
| B1 | 0.2 |
| B2 | 0.29 |
| B3 | 0.37 |
| B4 | 0.24 |
| B5 | 0.37 |
| B6 | 0.25 |
| B7 | 0.33 |
| B8 | 0.26 |
| B9 | 0.23 |

target: T1, HCV Core1-169; assay: sandwich EIA, capture 208B-395-334

| Binder | OD492 [OD] |
| --- | --- |
| B1 | 0.22 |
| B2 | 0.34 |
| B3 | 0.44 |
| B4 | 0.2 |
| B5 | 0.44 |
| B6 | 0.28 |
| B7 | 0.37 |
| B8 | 0.23 |
| B9 | 0.83 |

target: T1, HCV Core1-169; assay: sandwich EIA, capture 208A-207-271

| Binder | OD492 [OD] |
| --- | --- |
| B1 | 0.17 |
| B2 | 0.33 |
| B3 | 0.39 |
| B4 | 0.18 |
| B5 | 0.39 |
| B6 | 0.18 |
| B7 | 0.36 |
| B8 | 0.2 |
| B9 | 0.24 |

target: T1, HCV Core1-169; assay: sandwich EIA, capture 208A-110

| Binder | OD492 [OD] |
| --- | --- |
| B1 | 0.18 |
| B2 | 0.42 |
| B3 | 0.52 |
| B4 | 0.19 |
| B5 | 0.54 |
| B6 | 0.44 |
| B7 | 0.38 |
| B8 | 0.21 |
| B9 | 0.26 |
